Source: PMC12368520
Positions count from the first letter of the chain named. Names may count otherwise. Values belong to the binder of their own block, whether it stands above or below them.

What was measured:
[1] = target: Sb44, synthetic nanobody (sybody) against TGP; experiment: SEC; TGP (or Cys mutant) and sybody (or mutant) mixed 1:3 on ice for 20 min; Superdex 200 Increase 10/300 GL; 150 mM NaCl, 20 mM HEPES pH 7.5; absorbance at 493 nm and 280 nm
[2] = target: Sb44 V100C; experiment: SDS-PAGE (non-reducing); individually purified proteins; Laemmli sample buffer without DTT; 12% gel; Coomassie and in-gel fluorescence; shows disulfide-linked species
[3] = target: Sb44 V100C; experiment: SEC; TGP (or Cys mutant) and sybody (or mutant) mixed 1:3 on ice for 20 min; Superdex 200 Increase 10/300 GL; 150 mM NaCl, 20 mM HEPES pH 7.5; absorbance at 493 nm and 280 nm

stoichiometry N [1]: 2
B1: Sb44, synthetic nanobody (sybody) against TGP (VHH)
VHH: QVQLVESGGGLVQAGGSLRLSCAASGFPVGRASMWWYRQAPGKEREWVAAISSYGWVTAYADSVKGRFTISRDNAKNTVYLQMNSLKPEDTAVYYCEVSVGTGYRGQGTQVTVSA

stoichiometry N [2]: 2 | stoichiometry N [3]: 2
B2: Sb44 V100C (VHH)
VHH: B1 VHH with V100C
